Data taken from patent publication US20260125454A1 (SHANGHAI JUNSHI BIOSCIENCES, published 2026).

Columns and labels:
Biotin-huCGRPaSA = target: T1, Biotin-huCGRPaSA (human, not fully specified; biotin (position not given)); assay: ELISA, supernatant; relative to chimeric C245
T1 construct: exact construct ('aSA') not explained; also called Biotin CGRPaSA; full-length (1-37) CGRP
T1 peptide: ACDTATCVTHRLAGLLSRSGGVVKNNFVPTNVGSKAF
How it was run: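 Antibodies, including reference chimeric C245, titrated 2.5-fold from 1000 ng/mL and incubated 60 min at 37°C on wells coated with 1.0 μg/mL biotin-CGRPaSA and blocked with 2% BSA. Bound IgG detected with HRP anti-human Fc antibody and TMB, acid-stopped, absorbance 450/620 nm.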

CGRP antigen = assay: cell-based or functional assay

B1: hu226 (antibody, V domains shown)
VH: QVQLVQSGAEVKKPGASVKVSCKASGYTFTGYTMNWVRQAPGQRLEWMGLINPYIGNTHYNQKFKDRVTFTVDRSSSTAYMELSSLRSEDTAVYYCARELDSGFDYWGQGTLVTVSS
VL: DVVMTQSPLSLPVTLGQPASISCRSSQNIVHSNGDTYLEWYQQRPGQSPRLLIYKVSNRFSGVPDRFSGSGSGTDFTLKISRVEAEDVGVYYCYQGSHVPWTFGQGTKLEIK
notes: 3C1 HC-2/3C1 LC-1
Relative binding activity, % (Biotin-huCGRPaSA): 65%
IC50 (CGRP antigen): 0.0446 µg/mL
relative activity (%) vs C245 (CGRP antigen): 53%

B2: hu229 (antibody, V domains shown)
VH: QVQLVQSGAEVKKPGASVKVSCKASGYTFTGYTMNWVRQAPGQRLEWMGLINPYIGNTHYNQKFKDRVTFTVDRSSSTAYMELSSLRSEDTAVYYCARELDSGFDYWGQGTLVTVSS
VL: DVVMTQSPDSLAVSLGERATINCRSSQNIVHSNADTYLEWYQQKPGQPPKLLIYKVSNRFSGVPDRFSGSGSGTDFTLTISSLQAEDVAVYYCYQGSHVPWTFGQGTKLEIK
notes: 3C1 HC-2/3C1 LC-4
Relative binding activity, % (Biotin-huCGRPaSA): 48%
IC50 (CGRP antigen): 0.0851 µg/mL
relative activity (%) vs C245 (CGRP antigen): 28%

B3: hu228 (antibody, human IgG4 S228P, kappa, V domains shown)
VH: QVQLVQSGAEVKKPGASVKVSCKASGYTFTGYTMNWVRQAPGQRLEWMGLINPYIGNTHYNQKFKDRVTFTVDRSSSTAYMELSSLRSEDTAVYYCARELDSGFDYWGQGTLVTVSS
VL: DVVMTQSPDSLAVSLGERATINCRSSQNIVHSNGDTYLEWYQQKPGQPPKLLIYKVSNRFSGVPDRFSGSGSGTDFTLTISSLQAEDVAVYYCYQGSHVPWTFGQGTKLEIKR
Relative binding activity, % (Biotin-huCGRPaSA): 68%
IC50 (CGRP antigen): 0.0267 µg/mL
relative activity (%) vs C245 (CGRP antigen): 88%

B4: hu222 (antibody, V domains shown)
VH: QVQLVQSGAEVKKPGASVKVSCKASGYSFTGYTMNWVRQAPGQRLEWMGLINPYIGNTHYNQKFKDRVTFTVDRSSSTAYMELSSLRSEDTAVYYCARELDSGFDYWGQGTLVTVSS
VL: DVVMTQSPLSLPVTLGQPASISCRSSQNIVHSNGDTYLEWYQQRPGQSPRLLIYKVSNRFSGVPDRFSGSGSGTDFTLKISRVEAEDVGVYYCYQGSHVPWTFGQGTKLEIK
notes: 3C1 HC-1/3C1 LC-1
Relative binding activity, % (Biotin-huCGRPaSA): 65%
IC50 (CGRP antigen): 0.039 µg/mL
relative activity (%) vs C245 (CGRP antigen): 46%

B5: hu230 (antibody, V domains shown)
VH: QVQLVQSGSELKKPGASVKVSCKASGYTFTGYTMNWVRQAPGQGLEWMGLINPYIGNTHYNQKFKDRFVFSVDRSSSTAYLQISSLKAEDTAVYYCARELDSGFDYWGQGTLVTVSS
VL: DVVMTQSPLSLPVTLGQPASISCRSSQNIVHSNGDTYLEWYQQRPGQSPRLLIYKVSNRFSGVPDRFSGSGSGTDFTLKISRVEAEDVGVYYCYQGSHVPWTFGQGTKLEIK
notes: 3C1 HC-3/3C1 LC-1
Relative binding activity, % (Biotin-huCGRPaSA): 64%
IC50 (CGRP antigen): 0.0464 µg/mL
relative activity (%) vs C245 (CGRP antigen): 56%

B6: hu227 (antibody, V domains shown)
VH: QVQLVQSGAEVKKPGASVKVSCKASGYTFTGYTMNWVRQAPGQRLEWMGLINPYIGNTHYNQKFKDRVTFTVDRSSSTAYMELSSLRSEDTAVYYCARELDSGFDYWGQGTLVTVSS
VL: DVVMTQTPLSLSVTPGQPASISCRSSQNIVHSNGDTYLEWYLQKPGQSPQLLIYKVSNRFSGVPDRFSGSGSGTDFTLKISRVEAEDVGVYYCYQGSHVPWTFGQGTKLEIK
notes: 3C1 HC-2/3C1 LC-2
Relative binding activity, % (Biotin-huCGRPaSA): 64%
IC50 (CGRP antigen): 0.0368 µg/mL
relative activity (%) vs C245 (CGRP antigen): 64%

B7: hu235 (antibody, V domains shown)
VH: QVQLVQSGAEVKKPGASVKVSCKASGYTFTGYTMNWVRQAPGQGLEWMGLINPYIGNTHYNQKFKDRVTFTVDRSSSTAYMELSRLRSDDTAVYYCARELDSGFDYWGQGTLVTVSS
VL: DVVMTQTPLSLSVTPGQPASISCRSSQNIVHSNGDTYLEWYLQKPGQSPQLLIYKVSNRFSGVPDRFSGSGSGTDFTLKISRVEAEDVGVYYCYQGSHVPWTFGQGTKLEIK
notes: 3C1 HC-4/3C1 LC-2
Relative binding activity, % (Biotin-huCGRPaSA): 74%
IC50 (CGRP antigen): 0.0619 µg/mL
relative activity (%) vs C245 (CGRP antigen): 45%

B8: hu223 (antibody, V domains shown)
VH: QVQLVQSGAEVKKPGASVKVSCKASGYSFTGYTMNWVRQAPGQRLEWMGLINPYIGNTHYNQKFKDRVTFTVDRSSSTAYMELSSLRSEDTAVYYCARELDSGFDYWGQGTLVTVSS
VL: DVVMTQTPLSLSVTPGQPASISCRSSQNIVHSNGDTYLEWYLQKPGQSPQLLIYKVSNRFSGVPDRFSGSGSGTDFTLKISRVEAEDVGVYYCYQGSHVPWTFGQGTKLEIK
notes: 3C1 HC-1/3C1 LC-2
Relative binding activity, % (Biotin-huCGRPaSA): 71%
IC50 (CGRP antigen): 0.0353 µg/mL
relative activity (%) vs C245 (CGRP antigen): 51%

B9: hu234 (antibody, V domains shown)
VH: QVQLVQSGAEVKKPGASVKVSCKASGYTFTGYTMNWVRQAPGQGLEWMGLINPYIGNTHYNQKFKDRVTFTVDRSSSTAYMELSRLRSDDTAVYYCARELDSGFDYWGQGTLVTVSS
VL: DVVMTQSPLSLPVTLGQPASISCRSSQNIVHSNGDTYLEWYQQRPGQSPRLLIYKVSNRFSGVPDRFSGSGSGTDFTLKISRVEAEDVGVYYCYQGSHVPWTFGQGTKLEIK
notes: 3C1 HC-4/3C1 LC-1
Relative binding activity, % (Biotin-huCGRPaSA): 50%
IC50 (CGRP antigen): 0.0429 µg/mL
relative activity (%) vs C245 (CGRP antigen): 65%

B10: hu74 (antibody, V domains shown)
VH: QVQLVQSGSELKKPGASVKVSCKASGYTFTDFNMHWVRQAPGQGLEWMGYIYPYNGDVVYNQNFTNRFVLSVDSSSSTAYLQISSLKAEDTAVYYCAREGLGGYWGQGTLVTVSS
VL: DIVLTQSPDSLAVSLGERATINCQASQNIDGNTYMNWYQQKPGQPPKVLIYSIFNLESGVPDRFSGSGSGTDFTLTISSLQAEDVAVYYCQQSNDYPYTFGQGTKLEIK
notes: 1F5 HC-4/2B8 LC2-1
Relative binding activity, % (Biotin-huCGRPaSA): 112%
IC50 (CGRP antigen): 0.0739 µg/mL
relative activity (%) vs Ref(TEVA) (CGRP antigen): 58%

B11: hu66 (antibody, V domains shown)
VH: QVQLVQSGSELKKPGASVKVSCKASGYTFTDFNMHWVRQAPGQGLEWMGYIYPYNGDVVYNQNFTNRFVLSVDSSSSTAYLQISSLKAEDTAVYYCAREGLGGYWGQGTLVTVSS
VL: DIVLTQSPASLAVSPGQRATITCKASQNIDYDGYAYLNWYQQKPGQPPKVLIYSVFNLESGVPARFSGSGSGTDFTLTINPVEANDTANYYCQQSNEFPYTFGQGTKLEIK
notes: 1F5 HC-4/1A2 LC2-1
Relative binding activity, % (Biotin-huCGRPaSA): 129%
IC50 (CGRP antigen): 0.0566 µg/mL
relative activity (%) vs Ref(TEVA) (CGRP antigen): 89%

B12: hu86 (antibody, V domains shown)
VH: QVQLVQSGAEVKKPGASVKVSCKASGYTFIDFNMHWVRQAPGQRLEWMGYIYPYNADVVYNQDFTNRVTLTVDTSSSTAYMELSSLRSEDTAVYYCAREGLGGYWGQGTLVTVSS
VL: DIVLTQSPDSLAVSLGERATINCKASQNIDFDGYAYMNWYQHKPGQPPKVLIYSVFNLESGVPDRFSGSGSGTDFTLTISSLQAEDVAVYYCQQSHEVPYTFGQGTKLEIK
notes: 1F5 HC-5/1F5 LC1-4
Relative binding activity, % (Biotin-huCGRPaSA): 118%
IC50 (CGRP antigen): 0.134 µg/mL
relative activity (%) vs Ref(TEVA) (CGRP antigen): 35%

B13: hu76 (antibody, V domains shown)
VH: QVQLVQSGSELKKPGASVKVSCKASGYTFTDFNMHWVRQAPGQGLEWMGYIYPYNGDVVYNQNFTNRFVLSVDSSSSTAYLQISSLKAEDTAVYYCAREGLGGYWGQGTLVTVSS
VL: DIVLTQSPDSLAVSLGERATINCKASQNIDYDGYTYLNWYQQKPGQPPKVLIYSIFNLESGVPDRFSGSGSGTDFTLTISSLQAEDVAVYYCQQSNEVPYTFGQGTKLEIK
notes: 1F5 HC-4/3E5 LC-1
Relative binding activity, % (Biotin-huCGRPaSA): 112%
IC50 (CGRP antigen): 0.0649 µg/mL
relative activity (%) vs Ref(TEVA) (CGRP antigen): 66%

B14: hu77 (antibody, V domains shown)
VH: QVQLVQSGSELKKPGASVKVSCKASGYTFTDFNMHWVRQAPGQGLEWMGYIYPYNGDVVYNQNFTNRFVLSVDSSSSTAYLQISSLKAEDTAVYYCAREGLGGYWGQGTLVTVSS
VL: DIVLTQSPDSLAVSLGERATINCKASQNIDYGGYSYMNWYQQKPGQPPKVLIYSVFNLESGVPDRFSGSGSGTDFTLTISSLQAEDVAVYYCQQSNEAPYTFGQGTKLEIK
notes: 1F5 HC-4/3H10 LC2-1
Relative binding activity, % (Biotin-huCGRPaSA): 112%
IC50 (CGRP antigen): 0.0778 µg/mL
relative activity (%) vs Ref(TEVA) (CGRP antigen): 55%
